Measured values: the nanobody polyreactivity screen of Harvey et al. (2022)

experiment: yeast display, Sf9 membrane polyspecificity reagent, FACS + sequencing; frameworks hold sequencing errors
How it was run: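 Nanobodies from a synthetic yeast display library (Saccharomyces cerevisiae BJ5465), induced 36–48 hours with galactose, were stained 1 hour at 4 °C with 10% biotinylated, detergent-solubilized Sf9 membrane reagent, enriched on streptavidin microbeads, then FACS-sorted. Anti-HA (expression) and streptavidin (reagent binding) fluorescence set low and high (top ~1%) gates. Polyreactivity labels come from the gate of origin. Genes were colony-PCR amplified, MiSeq 2 × 250 sequenced and filtered by CDR length.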

Sequence | polyreactivity (PSR sort gate)
QVQLVESGGGIVQAGGSLRLSCAASGFIFVLYAMGWYRQAPGKERELVASISSTGSTYYADSVKGRFTISRENAKNTVYLQMNSLIPEDTAVYYCNLFVFDPEDFWGEGTQVTVSS | low polyreactivity
QVQLVESGGGIVQAGGSLRLSCAASGFIFWKNAMGWYSQAPGKERELVAAISTRGGSTYYADSVKGRFTISRDNAKNTVYLQMNSLKPEDTAVYYCNKEWYPYKHNYWGQGTQVTVSS | low polyreactivity
QVQLVESGGGIVQAGGSLRLSCAASGFKFKFYVMGWYRQAPGKERELVAAISRNSVSTYYADSVKGRFTISRDNAKNTVYLQMNSLKPEDTAVYYCAAKGPRQYNHWGQGTQVTVSS | high polyreactivity
QVQLVESGGGIVQAGGSLRLSCAASGFLYFFYAMGWYRQAPRKQRELVAANSDGVSTYYADSVKGRFTISRDNAKNTVYLQMNSLKPEDTAVFYCAVSRGDDPEFDYWGQCTQVTVSS | low polyreactivity
QVQLVESGGGIVQAGGSLRLSCAASGFTFIRYAMLWYRQAPGIERELVAAITSSGGSTYSADSVKGRFTISRDNAKNTVYLQKNSLKPEDTAVYYCATVYSGPVRAIGYDYWGQGTQVTVSS | high polyreactivity
QVQLVESGGGIVQAGGSLRLSCAASGFTFKKYAMGWYRQAPGKERELVAAISRSGGRTYYADSVKGRFTISRDNAKNTVFLQMNSLKPEDTAVYYCNADYYSAAYYYWGQGTQVTVSS | high polyreactivity
QVQLVESGGGIVQAGGSLRLSCAASGFTFQFYAMGWYRQAPGKEREFVAAISGSGGSTYYADSVKGRFTISRDNAKNTVYLQMNSLKPEDTAVYYCAAEVPGKPYRRSRYSFRHDYWGQGTQVTVSS | low polyreactivity
QVQLVESGGGIVQAGGSLRLSCAASGFTFYYKAMGWYRQAPGKERELVAAISRGGRTNYADSVKGRFTISRDNAKNTVYLEMNSLTPADTAVYYCAADRYNGVYAVYYYGYDYWGQGTKVTVSS | high polyreactivity
QVQLVESGGGIVQAGGSLRLSCAASGFTYVYYVMGWYRQAPGKDRELVAAINAGGGSTYYADSVKGRFTNSRDIAKNTVYLQMNSLKPEDTADYYCNARVRVRLGRNWSSYYYWGQGTQVTVSS | high polyreactivity
QVQLVESGGGIVQAGGSLRLSCAASGGIFWRYAMGWYRQAPGKERELVAAISSRGGSTYYADSVKGRFTISRDNAKNTVYLQMNSLKPEDTAVYYCAADRRYAESGYYWGHGTQVTVSS | high polyreactivity
QVQLVESGGGIVQAGGSLRLSCAASGGTCWFYDMGWYRQAPGKERELVAAINSDGSTYYADSVKGRFTISRDNAMNTVYLQMNSLQPEDTAVYYCAADISLHWYYYRRYNYWGQGTQGTVSS | low polyreactivity
QVQLVESGGGIVQAGGSLRLSCAASGGTFIRYAMGWYRQAPGKEREFVAAISASGGSTYYADSVKGRFTISRDNAKNTVYLQMNSLKPEDTAVYYCAARRTNLPVKFYYWGQGTQVTVSS | high polyreactivity
QVQLVESGGGIVQAGGSLRLSCAASGGTFTRYAMGWYRQAPGKEREFVAAISGSGGSTYYADSVKGRFTISRDNAKNTVYLQMNSLKPVDTAVYYCNKVPVYPPSYYWGQGTQVTVSS | low polyreactivity
QVQLVESGGGIVQAGGSLRLSCAASGIIIQYYAMGWYRQAPGKERELVAAISWSGGSTYYADSVKGRFTISRDNAKNTVYLQMNSLKPEDTAVYYCAARSRSYWPYEGDYWGQGTQVTVSS | low polyreactivity
QVQLVESGGGIVQAGGSLRLSCAASGISFLRYAMGWYRQAPGKEREFVAAINSIVGRTYYADSVKGRFTISRDNAKNTVYLQMNSLIPDDTAVYYCAADSNVRYGMDYWGQGTQVTVSS | low polyreactivity
QVQLVESGGGIVQAGGSLRLSCAASGITFPLYVMGWYRQAPGKERELVAAISASGGSTYADSVKGRFTISRDNAKNTVYLQMNSLKPEDTAVYYCNADVYVGYDYDYWGQGTQVTVSS | low polyreactivity
QVQLVESGGGIVQAGGSLRLSCAASGITIYKYAMGWYRQAPGKERELLAAITRGGSTYYADSVKGRFTISRDNAKNTVYLQMNSLNPEDTAVYYCNKVYHWQTPGFGYGYWGQGTQVTVSS | high polyreactivity
QVQLVESGGGIVQAGGSLRLSCAASGLTFWPYAMGWYRQARGKERELVAAISYNSGRTYYADSVKGRFTISRDNAKNTVYLQMNSLKPEDTEVYYCAVEWSLSRYYYWGQGTQVTVSS | high polyreactivity
QVQLVESGGGIVQAGGSLRLSCAASGLTFWYYAMGGYRQAPGKVRELVARITRSGVGTYYADSVKGRFTISRDNAKNTVYLQMNSLKPEDTAVYYCAARYWVSGFRAGYYWGQGTQVTVSS | high polyreactivity
QVQLVESGGGIVQAGGSLRLSCAASGLTFYVYAMGWYREAPGKEREFVAAITWSGGSTYYADSVKGRFTISRDNAKNTVYLQMNSLKPEDTAVYYCAAETLWSELYYWGQGTQVTVSS | high polyreactivity
QVQLVESGGGIVQAGGSLRLSCAASGLTYGKYAMGWNRPAPGKERELVAANSRRGGSTYYADSVKGRFTISRDKAKNNDYLQMNRLKPEDSAVYYFNTDTKHTGLDYWGQGTQVSVSS | high polyreactivity

Sequence | polyreactivity (PSR sort gate)
QVQLVESGGGIVQAGGSLRLSCAASGNIFGQYAMGWYRQAPGKERELVAAITTTGSTYYADSVKGRFTISRDNAKNTVYLQMNSLKPEDTAVYYCAAVRYYPISYSEYWQYGYWGQGTQVTVSS | low polyreactivity
QVQLVESGGGIVQAGGSLRLSCAASGNIFHQNAMGWYRQAPGKERELVAAISGSAGSTYYADSVKGRFTISRDNAKNTVYLQMNSLKPEDTAVYYCAADYYWLYNYWGQGTQVTVSS | high polyreactivity
QVQLVESGGGIVQAGGSLRLSCAASGNNFSLNGMGWYRQAPGKEREFLAAITWSVGSTYYAYSVNGRLTISRDNAKNTVYLQMNSLKPEDTAVYDCAATVSDLYKNEYYYWGLGTQVTVSS | low polyreactivity
QVQLVESGGGIVQAGGSLRLSCAASGPIFGSYALRWARQAPGKERELVAAITRSGGSTYYADSVKGRFTISRDNAKNTVYLQMNILKPEDTAVYYCAAYFSFSGSAKFGYWGQGTQVTVSS | high polyreactivity
QVQLVESGGGIVQAGGSLRLSCAASGPTFYLYDTMGWYRQAPGKERELVAAISWDDGDTYYADSVKGRFTISRDNAKNTVYLQMNSLKPEDTAVYYCAAESLSGAHGYWGQGTQVTVSS | low polyreactivity
QVQLVESGGGIVQAGGSLRLSCAASGRIFGFYAMVWYRQAPGNERELVAAITINTGSTSYADSVKGRFTSSRDNAKNTDSLPMNSLKPEDTAVYYCATDAAAPKYDYWGQGPQVTVSS | low polyreactivity
QVQLVESGGGIVQAGGSLRLSCAASGRIFGGNAMGWYRQAPGKERELVADISYGGGSTNYADSVKGRFTISRDNAKNTVYLQMNSLKPVDTAVYYCARDAWNTDGAYIGGDYDYWGQGTQVNVSS | low polyreactivity
QVQLVESGGGIVQAGGSLRLSCAASGRIFGRYAMGWYIQAPGKERELVAAISRSGGSTYYADSVKGRFTISRDNAKYTVYLQMNSLKPEDTAVYYCNAKYVRAGDTYDYWGQGTQVTVSS | high polyreactivity
QVQLVESGGGIVQAGGSLRLSCAASGRIFGTYGMGWYRQAPGKERELVAAISGGGSTNYADSVKGRFTISRDNAKNTVYLQMNSLKPEDTAVYYCAARYPPYRSWYSYDYWGHGTQVTVSS | low polyreactivity
QVQLVESGGGIVQAGGSLRLSCAASGRIFTQYTMGWYRQAPGKERELVAAINYSGGRTNYADSVKGRFTISRDIAKNTVYLQMNSLKPEDTAVYYCAAGYRRATYGYWGQGTQVTVSS | high polyreactivity
QVQLVESGGGIVQAGGSLRLSCAASGRIFVLNAMGWYRQAPGKERELVAAISKSAGSTYYADSVKGRFTISRDNAKNTVYLQMNSLKPEDTAVYYCNVGRRGHYLDAYDYWGQGTQVTVSS | high polyreactivity
QVQLVESGGGIVQAGGSLRLSCAASGRNFTFYAMGWYRQAPGKERELVAAITKSGGSTYYADSVKGRFTISRDNAKNTVYLQMNSLKPEDTAVYYCAAGNHRRPADYGSWGQGTQVTVSS | low polyreactivity
QVQLVESGGGIVQAGGSLRLSCAASGRSFGIYAMGWYRQAPGKERELVAGITRGDRTFAYSVKGRFTISRDNAKNTVYLQMNSLKPEDTAVYYCNADVYPYKLALPAGMGYWGQGTQVTVSS | high polyreactivity
QVQLVESGGGIVQAGGSLRLSCAASGRTFAYYAMGWYRQAPGKERELVAAIDSSGGSTYYADSVKGRFTISRDNAKNTVYLQMYSLKPEDTAVYYCAASYPYDRYDQGGYGYWGQGTQVTVSS | low polyreactivity
QVQLVESGGGIVQAGGSLRLSCAASGRTFNFYAMGWYRQAPGKERELVAAIRKSGASTYYADSVKGRFTISRDNAKNTVYLQMNSLKPEDTAVYYCAADGQVSYALGFDYWGQGTQVTVSS | high polyreactivity
QVQLVESGGGIVQAGGSLRLSCAASGRTFQLYAMGWYRQAPGKERELVAAITRGGSTKYADSVKGRFTISRDNAKNTVYLQMNSLKPEDTAVDYCAAKFSSYWSRFGYWGQGTQVTVSS | high polyreactivity
QVQLVESGGGIVQAGGSLRLSCAASGRTFQPYAMGWYRQAPGKERELVAAITSIGGSTFYADSVKGRFTISRDNAKNTVYLQMNSLKPEDTAVYYCARRGYYRSKWERDYWGQGTQVTVSS | low polyreactivity
QVQLVESGGGIVQAGGSLRLSCAASGRTFSTYAMGWYRQAPGKESELVARITSSGGSTYYADSVKGRFTISRDNAKNTVYFQMNSLKPEDTAVYYCAARPLVRYRMQWTGGYYYWGQGTQVTVSS | high polyreactivity
QVQLVESGGGIVQAGGSLRLSCAASGRTFYDYAMGWYRPAPGKERELVAAISRRAGSTYYADSVKGRFTISRDISKNSVYLQMISLNPEDTAVYFCAAAYSRRWWRGHHYAFDYWGQGTQVTVSS | high polyreactivity
QVQLVESGGGIVQAGGSLRLSCAASGRTLQIYAMGRYRQAPGKERELVAAISSSGGSTYYADSVKGRFTISRDNEKNTVYLQMNSLKPEDTAVYYCAVDGYGYKDDYWGQGTQVTVSS | high polyreactivity
